Read-outs that look alike come from different tables or passages of the source.
Legend:
[1] = biological target: biotinylated hFcRn (human) (UniProt P55899); assay: SPR Biacore, pH 6.0
Target sequence in this assay (P55899 24-297 limits assumed, form in doubt, chain 1 of 2): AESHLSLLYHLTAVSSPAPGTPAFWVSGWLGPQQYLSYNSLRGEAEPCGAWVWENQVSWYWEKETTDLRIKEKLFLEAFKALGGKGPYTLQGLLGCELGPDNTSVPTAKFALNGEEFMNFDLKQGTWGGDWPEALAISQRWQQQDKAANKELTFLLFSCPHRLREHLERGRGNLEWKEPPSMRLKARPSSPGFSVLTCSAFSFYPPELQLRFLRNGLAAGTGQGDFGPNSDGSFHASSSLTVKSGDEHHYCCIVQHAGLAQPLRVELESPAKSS
Target sequence in this assay (P61769 21-119 limits assumed, form in doubt, chain 2 of 2, further chain): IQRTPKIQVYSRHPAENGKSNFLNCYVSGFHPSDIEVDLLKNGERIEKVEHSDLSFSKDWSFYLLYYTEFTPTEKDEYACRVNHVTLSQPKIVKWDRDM

[2] = biological target: rFcRn (rat) (UniProt P13599); assay: SPR Biacore, pH 6.0
[3] = biological target: biotinylated hFcRn (human) (UniProt P55899); assay: SPR Biacore, pH 7.4
Target sequence in this assay (P55899 24-297 limits assumed, form in doubt, chain 1 of 2): as the sequence (P55899 24-297 limits assumed, form in doubt, chain 1 of 2) above
Target sequence in this assay (P61769 21-119 limits assumed, form in doubt, chain 2 of 2, further chain): as the sequence (P61769 21-119 limits assumed, form in doubt, chain 2 of 2, further chain) above

[4] = biological target: rFcRn (rat) (UniProt P13599); assay: SPR Biacore, pH 7.4
[5] = biological target: biotinylated hFcRn (human) (UniProt P55899); assay: SPR Biacore, pH 6.0; remark: listed apart in the source
Target sequence in this assay (P55899 24-297 limits assumed, form in doubt, chain 1 of 2): as the sequence (P55899 24-297 limits assumed, form in doubt, chain 1 of 2) above
Target sequence in this assay (P61769 21-119 limits assumed, form in doubt, chain 2 of 2, further chain): as the sequence (P61769 21-119 limits assumed, form in doubt, chain 2 of 2, further chain) above

[6] = biological target: biotinylated hFcRn (human) (UniProt P55899); assay: SPR Biacore, pH 7.4; remark: listed apart in the source
Target sequence in this assay (P55899 24-297 limits assumed, form in doubt, chain 1 of 2): as the sequence (P55899 24-297 limits assumed, form in doubt, chain 1 of 2) above
Target sequence in this assay (P61769 21-119 limits assumed, form in doubt, chain 2 of 2, further chain): as the sequence (P61769 21-119 limits assumed, form in doubt, chain 2 of 2, further chain) above

[7] = biological target: Human CD16a (FcγRIIIa) V158 with C-terminal HPC4 tag (human) (UniProt P08637); assay: SPR Biacore FcγRIIIa
[8] = biological target: rFcRn (rat) (UniProt P13599); assay: BLI Octet, pH 6.0, purified antibody
[9] = biological target: biotinylated hFcRn (human) (UniProt P55899); assay: SPR Biacore, pH 7.4, 1000 nM antibody
Target sequence in this assay (P55899 24-297 limits assumed, form in doubt, chain 1 of 2): as the sequence (P55899 24-297 limits assumed, form in doubt, chain 1 of 2) above
Target sequence in this assay (P61769 21-119 limits assumed, form in doubt, chain 2 of 2, further chain): as the sequence (P61769 21-119 limits assumed, form in doubt, chain 2 of 2, further chain) above

[10] = biological target: rFcRn (rat) (UniProt P13599); assay: SPR Biacore, pH 7.4, 1000 nM antibody
[11] = biological target: rFcRn (rat) (UniProt P13599); assay: SPR Biacore, pH 6.0; remark: listed apart in the source
[12] = biological target: Human CD16a (FcγRIIIa) V158 with C-terminal HPC4 tag (human) (UniProt P08637); assay: SPR Biacore, captured FcγRIIIa-V158
[13] = biological target: biotinylated human FcRn (hFcRn; p51 subunit residues 24-297 with C-terminal Avi-tag, β2-m residues 21-119) (human) (UniProt P55899); assay: Biacore SPR, pH 6.0, apparent affinity
[14] = biological target: biotinylated human FcRn (hFcRn; p51 subunit residues 24-297 with C-terminal Avi-tag, β2-m residues 21-119) (human) (UniProt P55899); assay: Biacore SPR, human FcRn, pH 7.4, steady state
[15] = biological target: Human CD16a (FcγRIIIa residues 17-208, C-terminal HPC4 tag, valine at position 158) (human) (UniProt P08637); assay: Biacore SPR, HPC4-captured FcγRIIIa-V158, pH 7.4
[16] = biological target: biotinylated human FcRn (hFcRn; p51 subunit residues 24-297 with C-terminal Avi-tag, β2-m residues 21-119) (human) (UniProt P55899); assay: Biacore SPR, pH 7.4, steady state, 1000 nM antibody
[17] = biological target: biotinylated human FcRn (hFcRn; p51 subunit residues 24-297 with C-terminal Avi-tag, β2-m residues 21-119) (human) (UniProt P55899); assay: Biacore SPR, Biotin CAPture, pH 7.4, 1000 nM antibody, steady state
[18] = biological target: biotinylated human FcRn (hFcRn; p51 subunit residues 24-297 with C-terminal Avi-tag, β2-m residues 21-119) (human) (UniProt P55899); assay: Biacore SPR; second ratio column (inverse of c7)
[19] = biological target: biotinylated human FcRn (hFcRn; p51 subunit residues 24-297 with C-terminal Avi-tag, β2-m residues 21-119) (human) (UniProt P55899); assay: Biacore SPR, Biotin CAPture of biotinylated human FcRn, pH 6.0
[20] = biological target: biotinylated human FcRn (hFcRn; p51 subunit residues 24-297 with C-terminal Avi-tag, β2-m residues 21-119) (human) (UniProt P55899); assay: Biacore SPR; pH 6.0 affinity (M^-1) over pH 7.4 steady state RU
[21] = biological target: biotinylated human FcRn (hFcRn; p51 subunit residues 24-297 with C-terminal Avi-tag, β2-m residues 21-119) (human) (UniProt P55899); assay: Biacore SPR, human FcRn, pH 6.0 (column 'Affinity, pH 6.0 (nM)')
[22] = biological target: biotinylated cynomolgus FcRn (cynomolgus) (UniProt Q8SPV9); assay: Biacore SPR, pH 6.0
[23] = biological target: biotinylated hFcRn (human) (UniProt P55899); assay: Biacore SPR, pH 6.0
Target sequence in this assay (P55899 24-297, form in doubt, chain 1 of 2): as the sequence (P55899 24-297 limits assumed, form in doubt, chain 1 of 2) above
Target sequence in this assay (P61769 21-119, form in doubt, chain 2 of 2, further chain): as the sequence (P61769 21-119 limits assumed, form in doubt, chain 2 of 2, further chain) above

[24] = biological target: mouse FcRn (mouse) (UniProt Q61559); assay: Biacore SPR, pH 6.0
[25] = biological target: biotinylated cynomolgus FcRn (cynomolgus) (UniProt Q8SPV9); assay: Biacore SPR, pH 7.4, steady state
[26] = biological target: biotinylated hFcRn (human) (UniProt P55899); assay: Biacore SPR, pH 7.4, steady state
Target sequence in this assay (P55899 24-297, form in doubt, chain 1 of 2): as the sequence (P55899 24-297 limits assumed, form in doubt, chain 1 of 2) above
Target sequence in this assay (P61769 21-119, form in doubt, chain 2 of 2, further chain): as the sequence (P61769 21-119 limits assumed, form in doubt, chain 2 of 2, further chain) above

[27] = biological target: mouse FcRn (mouse) (UniProt Q61559); assay: Biacore SPR, pH 7.4, steady state
[28] = biological target: Human CD16a (FcγRIIIa) V158 with C-terminal HPC4 tag (human) (UniProt P08637); assay: Biacore SPR, captured FcγRIIIa-V158, relative to WT of the same backbone

Chain of mouse FcRn (mouse) (Q61559 22-297, chain 1 of 2): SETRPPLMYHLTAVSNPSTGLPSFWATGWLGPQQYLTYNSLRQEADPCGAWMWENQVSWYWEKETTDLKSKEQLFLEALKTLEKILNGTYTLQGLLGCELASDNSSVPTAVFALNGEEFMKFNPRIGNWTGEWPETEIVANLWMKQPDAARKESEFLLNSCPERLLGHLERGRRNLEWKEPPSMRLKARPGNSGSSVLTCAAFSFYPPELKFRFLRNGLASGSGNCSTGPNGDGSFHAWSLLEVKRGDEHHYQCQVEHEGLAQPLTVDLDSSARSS
Chain of mouse FcRn (mouse) (P01887 21-119, chain 2 of 2, further chain): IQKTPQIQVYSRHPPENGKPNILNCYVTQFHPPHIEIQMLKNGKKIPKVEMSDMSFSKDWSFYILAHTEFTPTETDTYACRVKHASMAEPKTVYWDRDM
Chain of rFcRn (rat) (P13599 23-298 limits assumed, form in doubt, chain 1 of 2): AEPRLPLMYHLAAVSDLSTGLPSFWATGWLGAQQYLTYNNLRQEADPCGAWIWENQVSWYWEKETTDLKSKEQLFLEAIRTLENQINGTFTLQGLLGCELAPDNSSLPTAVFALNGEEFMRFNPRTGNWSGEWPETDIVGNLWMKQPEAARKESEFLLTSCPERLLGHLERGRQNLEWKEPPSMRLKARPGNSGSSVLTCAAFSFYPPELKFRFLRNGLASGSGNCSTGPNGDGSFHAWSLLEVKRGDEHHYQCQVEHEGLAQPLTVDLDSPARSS
Chain of rFcRn (rat) (P07151 21-119 limits assumed, form in doubt, chain 2 of 2, further chain): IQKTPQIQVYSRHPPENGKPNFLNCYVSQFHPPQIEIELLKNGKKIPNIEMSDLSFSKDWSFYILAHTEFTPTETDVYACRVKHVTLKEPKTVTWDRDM
Chain of biotinylated human FcRn (hFcRn; p51 subunit residues 24-297 with C-terminal Avi-tag, β2-m residues 21-119) (human) (P55899 24-297, form in doubt, chain 1 of 2): as the sequence (P55899 24-297 limits assumed, form in doubt, chain 1 of 2) above
Chain of biotinylated human FcRn (hFcRn; p51 subunit residues 24-297 with C-terminal Avi-tag, β2-m residues 21-119) (human) (P61769 21-119, form in doubt, chain 2 of 2, further chain): as the sequence (P61769 21-119 limits assumed, form in doubt, chain 2 of 2, further chain) above
Chain of Human CD16a (FcγRIIIa) V158 with C-terminal HPC4 tag (human) (P08637 17-208 F176V): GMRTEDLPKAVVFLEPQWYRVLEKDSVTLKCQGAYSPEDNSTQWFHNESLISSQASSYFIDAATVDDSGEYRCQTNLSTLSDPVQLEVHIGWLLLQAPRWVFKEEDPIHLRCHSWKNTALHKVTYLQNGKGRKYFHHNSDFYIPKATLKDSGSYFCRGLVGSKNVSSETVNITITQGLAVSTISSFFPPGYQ
Chain of Human CD16a (FcγRIIIa residues 17-208, C-terminal HPC4 tag, valine at position 158) (human) (P08637 17-208 F176V): as above

Substance | koff [1] [s⁻¹] | Kd [2] [nM] | koff [2] [s⁻¹] | Steady State RU [3] [RU] | Steady State RU [4] [RU] | kon [1] [M⁻¹ s⁻¹] | kon [2] [M⁻¹ s⁻¹] | Kd [22] [nM] | Kd [23] [nM] | Kd [24] [nM] | Steady State RU (pH 7.4) [25] [RU] | Steady State RU (pH 7.4) [26] [RU] | Steady State RU (pH 7.4) [27] [RU] | FcγRIIIa V158 Affinity Fold Change (fold relative to WT) [28] | other results
mAb1 M252Y/S254T/T256E (antibody) | 0.045 | 18 | 0.00121 | 13.2 | 53.9 |  |  |  |  |  |  |  |  |  | Kd [5]: 342 nM; Steady State RU [6]: 13.1 RU; % reduction in binding response vs wild-type [7]: 50%; koff [8]: 0.00066 s⁻¹; Steady State RU [9]: 13.2 RU; Steady State RU [10]: 53.9 RU
mAb1 M252Y/T256D (antibody) |  | 5.86 |  | 9.7 | 56 |  |  |  |  |  |  |  |  |  | Kd [11]: 5.9 nM
mAb1 M428L/N434S (antibody) | 0.052 | 74 | 0.00658 | 18.3 | 24.8 | 193000 | 90800 |  |  |  |  |  |  |  | Kd [5]: 272 nM; koff [5]: 0.5 s⁻¹; kon [5]: 19000 M⁻¹ s⁻¹; Steady State RU [6]: 18.5 RU; FcγRIIIa V158 Affinity Fold Change (relative to WT) [12]: 1.04 fold; koff [8]: 0.00338 s⁻¹; Steady State RU [9]: 18.3 RU; Steady State RU [10]: 24.8 RU
mAb1 T256D/T307Q (antibody) | 0.0872 | 9.54 | 0.00127 | 10.7 | 39.1 | 376000 | 133000 |  |  |  |  |  |  |  | Kd [1]: 232 nM; koff [5]: 0.87 s⁻¹; kon [5]: 38000 M⁻¹ s⁻¹; Kd [11]: 9.5 nM; FcγRIIIa V158 Affinity Fold Change (relative to WT) [12]: 0.73 fold
mAb1 T256D/T307W (antibody) | 0.0892 | 8.24 | 0.00129 | 12.2 | 42.1 | 529000 | 157000 |  |  |  |  |  |  |  | Kd [1]: 169 nM; koff [5]: 0.89 s⁻¹; kon [5]: 53000 M⁻¹ s⁻¹; Kd [11]: 8.2 nM; FcγRIIIa V158 Affinity Fold Change (relative to WT) [12]: 0.89 fold
mAb1 T307A/E380A/N434A (antibody) | 0.144 | 77 | 0.0117 |  |  | 83700 | 157000 |  |  |  |  |  |  |  | Kd [1]: 1780 nM; Steady State RU [6]: 13.1 RU; koff [8]: 0.00377 s⁻¹; Steady State RU [9]: 13.9 RU; Steady State RU [10]: 23.6 RU
mAb1 YDQF variant (M252Y/T256D/T307Q/N434F) (antibody) |  |  |  |  |  |  |  |  |  |  |  |  |  |  | Ka [13]: 1.11e+08 M⁻¹; Steady State RU (pH 7.4) [14]: 91.7 RU; FcγRIIIa Binding (RU) [15]: 93.2 RU; Steady State Binding, pH 7.4 (RU) [16]: 68.6 RU; pH 7.4 RU [17]: 91.7 RU
mAb1 YDQY variant (M252Y/T256D/T307Q/N434Y) (antibody) |  |  |  |  |  |  |  |  |  |  |  |  |  |  | Ka [13]: 2.35e+08 M⁻¹; Steady State RU (pH 7.4) [14]: 103 RU; Ratio (pH 7.4/pH 6.0) [18]: 3.41e-07; FcγRIIIa Binding (RU) [15]: 119 RU; Steady State Binding, pH 7.4 (RU) [16]: 80.2 RU; Kd [19]: 2.7 nM; Ratio (pH 6.0/pH 7.4) [20]: 2.93e+06; Kd [21]: 2.7 nM; pH 7.4 RU [17]: 103 RU
mAb1 YDWY variant (M252Y/T256D/T307W/N434Y) (antibody) |  |  |  |  |  |  |  |  |  |  |  |  |  |  | Ka [13]: 2.66e+08 M⁻¹; Steady State RU (pH 7.4) [14]: 91.2 RU; Ratio (pH 6.0/pH 7.4) [18]: 3.33e-07; FcγRIIIa Binding (RU) [15]: 104 RU; Steady State Binding, pH 7.4 (RU) [16]: 88.5 RU; Kd [19]: 5.2 nM; Ratio (pH 6.0/pH 7.4) [20]: 3.01e+06; Kd [21]: 5.2 nM; pH 7.4 RU [17]: 91.2 RU
mAb2 DQ (T256D/T307Q) (antibody) |  |  |  |  |  |  |  | 110 | 97 | 24 | 11 | 14 | 248 | 1.05 | 
mAb2 DW (T256D/T307W) (antibody) |  |  |  |  |  |  |  | 99 | 69 | 13 | 15 | 18 | 257 | 1.15 | 
mAb2 LS (M428L/N434S) (antibody) |  |  |  |  |  |  |  | 210 | 113 | 20 | 38 | 44 | 285 | 1.23 | 
mAb2 YD (M252Y/T256D) (antibody) |  |  |  |  |  |  |  | 120 | 99 | 10 | 22 | 27 | 394 | 0.58 | 

Reference: patent publication US20190263934A1
